Data: the supplement of paper PMC10201428
± gives the standard deviation of the averaged measurements.

B1: library; a variant is named by its letters at N, in order (parent)
chain: AATGTTGTTGATGCAACCATAAAGTGATATTTAATAATTATTTATAATCAGCAACTTAACCACAAAACAACCATATATTGATATNTCACAAAACAACCATAANTTGATATTTTTGTGAATCGAGTATTTCAGCAAAACTACTGCAGTAAGAA

Key:
[1] = variants of: B1; assay: relative integration efficiency (T-LR orientation) vs wild-type transposon end (log2 (normalized fold change)); transposon end mutated: left end; higher = more efficient transposition; settings: with VchCAST RNA-guided transposition machinery (E. coli BL21(DE3) host, lacZ target)
Procedure, shortened: (§1)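 Each barcoded pool, 1549 left-end or 1849 right-end transposon variants in a pUC57 mini-transposon donor, went into E. coli BL21(DE3) with a T7-driven effector plasmid (CRISPR array, tniQ-cas8-cas7-cas6, tnsA-tnsB-tnsC). Plates contained 0.1 mM IPTG and were held at 37°C for 18 h. Input plasmids and genomic integration junctions were PCR-amplified and read by Illumina sequencing, with two biological output replicates and four reference barcodes. Relative integration efficiency is the fold change of output over input barcode abundance, normalised to the reference barcodes and log-transformed.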

[2] = variants of: B1; assay: relative integration efficiency (T-RL orientation) vs wild-type transposon end (log2 (normalized fold change)); transposon end mutated: left end; higher = more efficient transposition; settings: with VchCAST RNA-guided transposition machinery (E. coli BL21(DE3) host, lacZ target)
Procedure, shortened: as §1

| Variant | relative integration efficiency (log2) [1] | relative integration efficiency (log2) [2] |
| --- | --- | --- |
| CG T12A T30A T31C T32A A77C T86G | -0.709 ± 0.52 | -0.451 ± 0.25 |
| CG T41G T42G | 1.22 ± 0.23 | 0.0624 ± 0.23 |
| CG T20G A21C A22C A23C | -2.4 ± 0.83 | -3.18 ± 0.88 |
| CG T12A G13A T30A T31C T32A A77C | -1.73 ± 0.73 | -0.517 ± 0.24 |
| CG T32A A33T T86A C87G T112A T113A | -0.463 ± 0.11 | -0.48 ± 0.21 |
| CG T12A G13A T30A T31C T32A A77C T86G | -0.4 ± 0.61 | -0.303 ± 0.3 |
| CG G117C A118T A119T T120A | 0.101 ± 0.3 | 0.268 ± 0.02 |
| CG T42A T43A A44T T45A | 0.262 ± 0.049 | 0.271 ± 0.16 |
| CG T35G A36C | -0.467 ± 0.11 | -0.318 ± 0.071 |
| CG T12A G13A T30A A77C T86G | -0.394 ± 0.45 | -0.113 ± 0.12 |
| CG T9A G10C A11T T12A | -4.24 ± 1.9 | -1.59 ± 0.56 |
| CG G24T T25G G26T A27C | -2.96 ± 1.7 | -2.31 ± 0.84 |
| CG G51C C52G A53T A54T | -0.796 ± 0.93 | -0.34 ± 0.37 |
| CG T31A T32A A33T A34T | 0.0738 ± 0.43 | -0.0923 ± 0.16 |
| CG T12G G13T C14A A15C | -0.59 ± 0.54 | -0.224 ± 0.3 |
| CG T48G C49A A50C G51T C52A A53C A54C C55A T56G T57G A58C | -3.04 ± 1.4 | -2.79 ± 0.63 |
| CG G51C C52G | -0.162 ± 0.74 | -0.107 ± 0.11 |
| CG T30A T84A T110A | -0.322 ± 0.51 | -0.403 ± 0.24 |
| CG T12A G13A T30A T31C A77C T86G | -1.07 ± 0.047 | -0.538 ± 0.15 |
| CG G106T A107C T108G A109C | -2.4 ± 0.46 | -2.01 ± 0.81 |

| Variant | relative integration efficiency (log2) [1] | relative integration efficiency (log2) [2] |
| --- | --- | --- |
| CG G24T T78G T104G | 0.121 ± 0.35 | -0.352 ± 0.37 |
| CG T32A | 0.415 ± 0.98 | 0.178 ± 0.032 |
| CG T32G | -0.347 ± 0.098 | -0.146 ± 0.14 |
| CG T32C | 0.089 ± 0.39 | -0.0923 ± 0.12 |
| CG T20G A21C | -2.47 ± 0.87 | -2.18 ± 0.77 |
| CG G80A | -0.967 ± 1.4 | -0.773 ± 0.37 |
| CG G80C | -1.47 ± 0.43 | -2.06 ± 0.66 |
| CG G80T | 0.0932 ± 0.91 | -0.44 ± 0.42 |
| GG T31A T32A A33T T86A C87G T111A T112A T113A | -0.524 ± 0.35 | -0.495 ± 0.72 |
| CG T30G | -0.765 ± 0.6 | -0.614 ± 0.37 |
| CG T30C | 0.128 ± 0.19 | 0.0623 ± 0.096 |
| CG T30A | 0.497 ± 0.092 | 0.256 ± 0.046 |
| CG G117C A118T | 0.236 ± 0.11 | 0.235 ± 0.026 |
| CG G106T A107C | -1.19 ± 0.39 | -1.42 ± 0.84 |
| CG T48A C49G A50T G51C C52G A53T A54T C55G T56A T57A A58T | -2.96 ± 2.6 | -3.43 ± 1.1 |
| CG T31G T32G | -0.16 ± 0.58 | -0.225 ± 0.34 |
| CG T35G A36C A37C T38G | 0.209 ± 0.74 | 0.203 ± 0.092 |
| CG T25A G26C | -1.33 ± 1.5 | -1.73 ± 0.85 |
| CG G106T | -1.19 ± 0.64 | -0.797 ± 0.42 |
| CG G106A | -1.25 ± 1.6 | -0.788 ± 0.47 |

| Variant | relative integration efficiency (log2) [1] | relative integration efficiency (log2) [2] |
| --- | --- | --- |
| CG G106C | -2.1 ± 1.4 | -1.81 ± 0.62 |
| CG G51T | 0.637 ± 0.29 | 0.00628 ± 0.18 |
| CG G51A | 0.634 ± 0.19 | 0.302 ± 0.085 |
| CG G51C | -0.456 ± 0.66 | -0.42 ± 0.19 |
| CG G106C A107T T108A A109T | -1.44 ± 0.63 | -1.36 ± 0.7 |
| CG T32A A33T A34T T35A | 0.141 ± 0.33 | -0.0669 ± 0.14 |
| CG T31A T32A | -0.442 ± 0.33 | -0.131 ± 0.028 |
| CG T3A G4C | -0.231 ± 0.33 | 0.0698 ± 0.073 |
| CG T28G T82G T108G | -3.23 ± 3.2 | -2.28 ± 0.9 |
| CG T12G | -0.01 ± 0.2 | -0.917 ± 0.57 |
| CG T12C | -0.943 ± 0.57 | -0.0642 ± 0.048 |
| CG T12A | 0.00533 ± 0.2 | -0.099 ± 0.056 |
| CG T25G T79G T105G | -3.03 ± 1.7 | -2.73 ± 1.2 |
| CG T32A A77C T86G | -0.351 ± 0.47 | -0.197 ± 0.12 |
| CG T45G A46C | 0.396 ± 0.26 | -0.219 ± 0.2 |
| CG T12A G13A T31C A77C T86G | -0.319 ± 0.56 | -0.196 ± 0.058 |
| CG G115T T116G G117T A118C A119C T120G C121A G122T A123C G124T T125G | 0.199 ± 0.37 | 0.000247 ± 0.072 |
| CG G80C A81T | -2.2 ± 1.5 | -2.1 ± 0.85 |
